Tests used:
[1] = target: Monodelphis domestica von Willebrand factor (VWF), purified from plasma (Monodelphis domestica)
[2] = target: human von Willebrand factor (VWF) (human) (UniProt P04275)

botrocetin from Bothrops jararaca (purified venom fraction) (complex)
reduction in the overall extent of platelet adhesion to collagen under flow (60 dyn/cm^2), opossum PRP with 4 ug/mL botrocetin, against the control without venom protein [1]: 39% | reduction in the overall extent of platelet adhesion to collagen under flow (60 dyn/cm^2), human PRP with 4 ug/mL botrocetin, against the control without venom protein [2]: 66%
